Where two headings read alike, the source gives them in different places.

The target of test [1] is T1, SlyD-SlyD-tagged nucleocapsid full-length protein (EcSlyD-EcSlyD-CoV-2-N(1-419)) (SARS-CoV-2).
For test [2], the target named is T1, SlyD-SlyD-tagged nucleocapsid …. This is another data set of the same source.
The target is the same in test [3]. Nature of the test: SPR (Biacore), captured antibody, NCP analyte, Langmuir 1:1 fit. A general note: Surface plasmon resonance follows binding to a sensor surface in real time, without labels.

B1: Antibody 1.1.32 (antibody, V domains shown)
VH: EVQLQQSGPELVKPGASVKMSCKASGYTFTTYVMHWVKQKPGQGLEWIGYSDPYNGDSKDNENFKGKATLTSDKSSSTVYMELSSLTSEDSAVYYCARGFGNYLFYFDYWGQGTTLTVSS
VL: DIQMTQTTSSLSASLGDRVTISCSASQDIRDYLNWYQQKPDGTVKLLIYYTSNLHSGVPSRFSGSGSGTDYSLTISNLEPEDIATYFCQQYSKLPYTFGGGTKLEIK
notes: also called M-1.1.32; clone 1.1.32
Usually Kd stands for a measure of binding affinity in units of concentration. Read a low Kd as tighter binding. One may read the koff as the first-order rate constant of dissociation. A low value points to slow dissociation. By kon is commonly meant a measure of how fast the partners come together. A lower kon goes with slower complex formation. Regarding B1, in test [1], the Kd worked out at 60 pM and the koff came to 2e-05 s⁻¹. In test [2], the Kd is 59 pM, the “MR (molar ratio)” value was determined as 0.9, the kon came out at 340000 M⁻¹ s⁻¹ and the t1/2 diss was found to be 9.65 h. For the same molecule, in test [3], binding was characterised by a dissociation constant (Kd) of 59 pM, the “MR (molar ratio)” value was 0.9, the kon was 340000 M⁻¹ s⁻¹ and the t1/2 diss came to 9.65 h.

B2: Antibody 5B6 (antibody, V domains shown)
VH: SQSVEESGGRLVTPGTPLTLTCTASGFSLSSYYMSWVRQAPGKGLEWIGVMTAGGSTFYASWAKGRFTISKTSTTVDLKITSPTTEDTATYFCARSIDTNYGSSIWGPGTLVTVSL
VL: DVVMTQTPASMSEPVGGTVTIKCQASEDIYTYLSWYQQQSGQPPKVLIYAASNLASGVSSRFKGSRSGTEYTLTISDLECADAATYYCQGDYYGSNYGLGTFGGGTEVVVK
notes: also called clone 5B6
In test [1], B2 registered a Kd of 700 pM. Besides, in test [2], the “MR (molar ratio)” value turned out to be 1.7, the dissociation rate constant (koff) was determined as 0.00012 s⁻¹, the association rate constant (kon) was determined as 180000 M⁻¹ s⁻¹ and the t1/2 diss worked out at 1.55 h. Also, in test [3], the “MR (molar ratio)” value is 1.7, the off-rate constant (koff) worked out at 0.00012 s⁻¹, the kon was determined as 180000 M⁻¹ s⁻¹ and the t1/2 diss was 1.55 h.

B3: Antibody 1G9 (antibody, V domains shown)
VH: SQSVEESGGRLVTPGTPLTLTCTVSGFSLSTYAVNWVRQAPGKGLEWIGVIDGSGSTYYANWAKGRFTISKASTTVDLKITSPTTEDTATYFCARGAGTDNFGNLNLWGPGTLVTVSS
VL: DVVMTQTPASVEVAVGGTVTIKCQASESISSWLAWYQQKPGQPPKLLIYRASTLASGVPSRFKGSGSGTEYTLTISGVECADAATYYCQQDYSTSNIDNTFGGGTEVVVK
notes: also called clone 1G9
With B3, the equilibrium dissociation constant (Kd) in test [1] was 1200 pM. Also, in test [2], the “MR (molar ratio)” value stood at 1.2, the koff came to 0.00024 s⁻¹, the kon was 200000 M⁻¹ s⁻¹ and the t1/2 diss amounted to 0.8 h. For the same molecule, in test [3], the “MR (molar ratio)” value stood at 1.2, the koff is 0.00024 s⁻¹, the on-rate (kon) is 200000 M⁻¹ s⁻¹ and the t1/2 diss turned out to be 0.8 h.

For the origin of these results see patent US20230406909A1 (ROCHE DIAGNOSTICS OPERATIONS, published 2023).
